Reference: the DeepSol protein solubility set

assay: soluble on expression in E. coli; label from the status in PepcDB or PDB records

**Q.** Which “soluble on expression in E. coli” value does the source give for “MGSDKIHHHHHHMEEKLSDVKVSGSGSIGGGNYDEVKISGSAKINGNVNCNSYMCSGSSTANGNITAKEIVKISGTTKVHGDLNSGDLIVSGSSRTFGNVTAKKIKISGSSDIEGNVHTDSIDISGSVSIGEDCEAEHFHARGGFEIAGLLNAGDIEIYMYGKCRVKDIGGENITVKLGSGHFIHEMMNLFFTRGRLVTSIIEGDNIYLEHTDAKIVRGNNITIGPNCNIENIEYKNQLNMDQSCKALCKKVDE” here?
**A.** not soluble

**Q.** With “MGSDKIHHHHHHMEFIPPKRLLELIRQYSTTFENWHSVMLSIYLHKERIKCKLRNGQLLYLKPNEIVLLAGLKIVELNEDSVRFQFNGREICLKGWKLSYPGDSFSDYWRIDVRGKRVLDIGAGIGDSPIYFSIAGAKEVVAVEVDSKKVELMRENLKANSINNVIVVDKGVGIKDDENYISWPKLISNYGPFDVAKIDCDGCEKIIVPYIKEIPSLLIEWDYNYKDIVSNLTKNGYKVKVEHTLKNLGFIYAKKR” as the sequence, how does the “soluble on expression in E. coli” value read?
**A.** not soluble

**Q.** For “MGSDKIHHHHHHMEITKRIEELREEMVESLKKFISINSVNPAFGGPGEKEKADWLEGLLRDFGFEVDRCDVRDDRGIWRSNIVAKIPGKNREKTLWIVTHIDTVPPGDLSLWETDPFVPVVKDGKVYGRGAEDNGGSMIASIYAGKALIDLGITPEYNFGLALVADEEAGSEYGIQYLIEKGLFSPEDMFLVPDAGNEKGDFIEIAEKSILWFKVMVNGKQGHASRPQTTENALRKGAHLITEIDEALHRKYSDRDELFDEPLSTFEPTRAEKTVDNVNTVPGRFVFYFDCRVLPRYNLDEVLSIVKSILDGRGAELEVVVKQPAPEPTPPDSELVVKLSNVLRSLRGLEAKVGGIGGGTCAAFFRKKGWPAVVWSTIDETAHQPNEYRRISHMVEDAKVFALLGTER”, which “soluble on expression in E. coli” value is on record?
**A.** not soluble

**Q.** For “MGSDKIHHHHHHMEKKIVYFNKPGRENTEETLRLAVERAKELGIKHLVVASSYGDTAMKALEMAEGLEVVVVTYHTGFVREGENTMPPEVEEELRKRGAKIVRQSHILSGLERSISRKLGGVSRTEAIAEALRSLFGHGLKVCVEITIMAADSGAIPIEEVVAVGGRSRGADTAVVIRPAHMNNFFDAEIKEIICMPRNKR”, which “soluble on expression in E. coli” value is on record?
**A.** soluble

**Q.** Which “soluble on expression in E. coli” value does the source give for “MGSDKIHHHHHHMEKKPLYHFMPGTMTWSFGTPGCNFKCANRQNWAISQMGQDKSIPLATPEAIVRNAMNTGCSSISCTYTEPTIFAEYALDVMQLARQTGLRNIWISNGYLSPLCLKTVTPWLDAINVGLQSMDDAFYRRVCGARLDPVLDSLRLIQESGMHLEITTLVIPGHSSDPAMLERLAGFIAHDLGTGVPWHIIPFYPEISWKMQDTPPTPAESIEQAFEIGRKAGLSFIYAGNAHSDTFCDQCSARLVGRKASPFGDYRIERFDTGGRCPVCHAPSPMRD” here?
**A.** not soluble

**Q.** Which “soluble on expression in E. coli” value does the source give for “MGSDKIHHHHHHMEKLQESMYQLIVETSTNLPKDVRRAIQQAKERENAGTRSAMALGTITNNIKMADDNISPICQDTGMPTFKIYTPVGVNQLKLKEAIYNALERATKDGKLRPNSVDSLFGDNSGNNLGPGTPVIKFEQWEKDYIDARLILKGGGCENKNIQYSLPCELEGLGRAGRDLEGIRKCLLHAVYQAQGQGCSAGVIGVGIGGDRTSGYELAKNQLFRTLDDVNPIPELQQLEEYVLENANKLGIGTMGFGGETTLLGCKIGVYNRLPASFYVSVAYNCWAYRRLGVTIHPETGEIMDWLYQEGEDTLEQEVQEKTEQREIVLQAPITEEQIRELRVGDVVTINGMMYTGRDAIHKHLMDNDCPVDLNGQIIYHCGPVVVKDENDNWQIKAAGPTTSIREEPYQGDIMKKFGIRAVIGKGGMGAKTLAALEEHGGVYLNAIGGAAQYYAECIKEVKDVDFLQFGIPEAMWHLRIDGFKAVVTMDSHGNSLHADVDKTSLEKLASFKEPVFK” here?
**A.** not soluble

**Q.** With “MGSDKIHHHHHHMELASSYDKHDIRYLSASEMAELRVTNVAANQSPADTSQVSTRPDPAPVPVPAPDARQQVESAAVAFVKDLIEHHGDNDDFALAQVQASYARTVDYYGKLTNLSSIIQDKRNYYRRWPERIYNVRNDSIVVTCANDRCMVSGIYDWVVRSPSIHKQDKGASNFSYTISTGPYPKIIAETSKVRS” as the sequence, how does the “soluble on expression in E. coli” value read?
**A.** not soluble

**Q.** For “MGSDKIHHHHHHMELRHLRYFAATAEELNFTRAANRLHISQPAVSRLIKELECELGAQLFTRERFGLRLTAAGEKFLFYARRVLQDCEEGIRAVRENGLNHQKLTIGFISTAMESFLSDALVRLSQERPDIDVTVNEMSPGDQIAALRYRQIDLGFIGNPHDGAGDEFELYVLREVPLVAVLPVRHRLAGRSEICIGELEGDTFIGYLEDKFPGRNRVISTACARAGFRPKFELKAGSLIEVLGMIGTGKGVCLMPSDVAGLPHPNVAFIPLRDPLDPVRLAAAWLPGNTNPALHQLIAILAADCSSDTGRTSR”, which “soluble on expression in E. coli” value is on record?
**A.** not soluble

**Q.** Which “soluble on expression in E. coli” value does the source give for “MGSDKIHHHHHHMELSSPSKKTTTSPINIPGGNRDNLIIGPHSHSFKTDPFSSNNSSLLSKISTNPSLESPFSSKSLLDCSPVQAVKKSLESEAKTHSLDEETNEQTDVKILNIADFPTDELILMISALLNRIITANDETTDVSQQVSDETEDELLTPILAFYGKNVPEIAVVQYLERIQKYCPTTNDIFLSLLVYFDRISKNYGHSSERNGCAKQLFVMDSGNIHRLLITGVTICTKFLSDFFYSNSRYAKVGGISLQELNHLELQFLILCDFKLLVSVEEMQKYANLLYKFWNDQ” here?
**A.** not soluble

**Q.** For “MGSDKIHHHHHHMEMRFFVLGAGSWGTVFAQMLHENGEEVILWARRKEIVDLINVSHTSPYVEESKITVRATNDLEEIKKEDILVIAIPVQYIREHLLRLPVKPSMVLNLSKGIEIKTGKRVSEIVEEILGCPYAVLSGPSHAEEVAKKLPTAVTLAGENSKELQKRISTEYFRVYTCEDVVGVEIAGALKNVIAIAAGILDGFGGWDNAKAALETRGIYEIARFGMFFGADQKTFMGLAGIGDLMVTCNSRYSRNRRFGELIARGFNPLKLLESSNQVVEGAFTVKAVMKIAKENKIDMPISEEVYRVVYEGKPPLQSMRDLMRRSLKDEFWAS”, which “soluble on expression in E. coli” value is on record?
**A.** soluble

**Q.** Which “soluble on expression in E. coli” value does the source give for “MGSDKIHHHHHHMENAPEPIETVKKGKCKVECQNKERFILIEKENGKAMYHTKIMMDIYKFGVYEKKHEFRLSLRALFNGERIVEETHLYPIKEGDKFIGIFYGYRKPIKKPLIKYQINGTKKAYALARAYYMEFRFKAGSVFCYFKGLYRLLDKKRTNNHYNKVLFSMFTDLEQQVYKFYGKKYPEQGPLIKWILKNLK” here?
**A.** not soluble

**Q.** Which “soluble on expression in E. coli” value does the source give for “MGSDKIHHHHHHMENHTDIETLLTKYFEGNTTPPENEQIEAWLNADEEHLRIAKQLNTLYLAVDTQHITKKIDTEKALDKVKSRTKVRNLSWWGWTQRIAAILSVPLLIGVLALYPDRQQPVVTAQMVEIKTNAGMTTSVLLPDSTVVHLNSESSLRYPTFFAGDVRQVELNGEAYFDVTQHPRKRFIVSTPHHSQVEVYGTSFNVEAYGNETPISTTLIEGSVGFIYKNSKGKFQKSMLSPRQKLVYSPQTGDIKCYATSGESEISWKDGKLIFNDTPLDEVLHMLGKRFNVEFVLSNKGLKGCSFTGTFTHQRLERIMEYFRISSHIRWRYIDSADIKTEKLKIEVY” here?
**A.** not soluble

**Q.** With “MGSDKIHHHHHHMENKSAVQLYLELLKKTILFEIWLEYEPYLPASLHISKELSYEPVTVPLPLFLKQYVENHNLKIVNPNVSNNERQGGKDWPRAAHSMVGRKRMNQLQEAMETVVRENIEGDFIETGVWRGGSCIFMNGFLQANNIYYRTVWVADSFEGLPAPNLEQYPKDYGDYLHTFDYLRVSLETVQENFRKYDLLNDQVKFLKGWFKDTLPSAPVEKIAIARLDGDMYESTMDSLVNLYDKVSTGGFIIIDDYGLITCAEAVTDFRSERNIKTPMTQIDDFGIYWRKE” as the sequence, how does the “soluble on expression in E. coli” value read?
**A.** not soluble

**Q.** For “MGSDKIHHHHHHMEPIIEIENFSAYYGEKIAVKNVTMKIFKNQITAIIGPSGCGKTTLLRSINRMNDHLPGFRVEGKIYFKGQDIYDPQLDVTEYRKRVGMVFQKPTPFPMSIYDNVAFGPRIHGVKSKHILDRIVEESLKKAALWDEVKSELNKSGTRLSGGQQQRLCIARALAVEPEVILLDEPTSALDPIATQRIEKLLEELSENYTIVIVTHNIGQAIRIADYIAFMYRGELIEYGPTREIVERPKNRLTEEYLTGKIG”, which “soluble on expression in E. coli” value is on record?
**A.** not soluble

**Q.** Which “soluble on expression in E. coli” value does the source give for “MGSDKIHHHHHHMEQLPILNLSDWHAGGQSRHAFITKLADAARRIGFFYLTGHGIELARQQQVLLLARDFFALPLADKLAVKMTNTPHFRGYTRLQGELTLGKPDLREQFDIMQEETANPPRSDVPKWSQLQGPNQWPSQLPQMKTILLEWQQDLADTSVALLKALAVALEQSETAFDATIDAGPYQHMKLIRYPNANGETSGQGVGAHKDPGYLTLVLQDKQSGLEVQTDEGWLSIPPLEGAFVVNIGELLELASNGYLKATYHRVTSPPAGVERYSCAFFMAAQLNATVPLLPLPEYLARQALGPASDPLNPLFHQVGQNVLKGRLRSHPDVAKAHYASFANAI” here?
**A.** not soluble

**Q.** With “MGSDKIHHHHHHMERFFIVGCGDIGKKVARIALADGAGVAALIRSPEKAESLREMGVTALEANLDERDSLAGMPTRGAVVFYFAPPPGGGVTDPRVRAFCDAIAPGEEPRKIVYLSTSGVYGDCGGDVVTEETPPNPQTSRARRRYDAETVFRQWGAERGVPVVILRVTGIYGPGRLPLQQLTSGQPVLEESLAPFTNRIHSEDLARICLAAAEHGEDGDIFNVSDGHPTTMTAYFDACADALGLPRPRRVTLEEARRVMTPLMFSYVTESRKMDNRLMREKLHVTLLYPTMQEGVRSSVA” as the sequence, how does the “soluble on expression in E. coli” value read?
**A.** not soluble

**Q.** For “MGSDKIHHHHHHMERKTVLVIADLGGCPPHMFYKSAAEKYNLVSFIPRPFAITASHAALIEKYSVAVIKDKDYFKSLADFEHPDSIYWAHEDHNKPEEEVVEQIVKVAEMFGADAITTNNELFIAPMAKACERLGLRGAGVQAAENARDKNKMRDAFNKAGVKSIKNKRVTTLEDFRAALEEIGTPLILKPTYLASSIGVTLITDTETAEDEFNRVNDYLKSINVPKAVTFEAPFIAEEFLQGEYGDWYQTEGYSDYISIEGIMADGEYFPIAIHDKTPQIGFTETSHITPSILDEEAKKKIVEAAKKANEGLGLQNCATHTEIKLMKNREPGLIESAARFAGWNMIPNIKKVFGLDMAQLLLDVLCFGKDADLPDGLLDQEPYYVADCHLYPQHFKQNGQIPETAEDLVIEAIDIPDGLLKGDTEIVSFSAATPGTSVDLTLFEAFNSIAAFELKGSNSQDVAESIRQIQQHAKLTAKYVLPV”, which “soluble on expression in E. coli” value is on record?
**A.** not soluble

**Q.** For “MGSDKIHHHHHHMERNTRVVKVANLKIGGNNPIIIQSMTNTNSADVEATVKQINNLEKVGCQLVRMTINNIKAAEAIKEIKKKVSLPLVADIHFDYRLALLAIKNGIDKLRINPGNIGSDENVKKVVEAAKEKNIPIRIGVNSGSIEKEILEKYGKPCVDALVESAMYHIRLLEKFDFFDIIVSLKSSNVKMMVEAYRKISSLVDYPLHLGVTEAGTKFQGTVKSAIGIGALLVDGIGDTLRVSLTENPVEEIKVAKEILKVLDLSDEGVEIISCPTCGRTEIDLIGLAKQVEEEFRTKKNKFKIAVMGCVVNGPGEAREADYGIAAGRGIGILFKKGEIIKKVSESNLLEELKKMISEDLENKKD”, which “soluble on expression in E. coli” value is on record?
**A.** not soluble

**Q.** Which “soluble on expression in E. coli” value does the source give for “MGSDKIHHHHHHMERPILGKYIIKGKIILETGLRIGGQELGVNIGGIDNPVIRNPLTGEPYIPGSSVKGKMRSLMERLLNLDISGNKVRRHECEERECKVCRVFGSTSKEGNNIPSRLLVRDAFLTEDSKTKLLSMETDLPYTEWKTENALDRVTCKADPRSFERIPAGAEFEFEIIYTAENEKHIKEDLENIATALELLEDDYLGGNGSRGYGKVKFSIEKVIFKSADYYKGEGTPVEKEVKGGVEGFKKAIPEIVKG” here?
**A.** not soluble

**Q.** For “MGSDKIHHHHHHMERVHVDIRQLQFFAEIVRYGSFTKAAERLHVAQPAVSMAMKKLEEELDLILFNRQERRISLTAEGEIFLRHAEKILDEVKSAETEMEELRGLAKGEVRVGIPPMMSAYFFPEIIRDFSNSYPDLHLTVSGEGASKIQKMIIDGELDMGVVAGASFPETLEVRRFLREEVIVCVPRSHPLASRGSLTLHEFARHPLIFYREGYYLRELILDVLRGAGLSPTIRFETNLYTLVKSLVQKGMGISVFLRMVVAEDDDLTAISLDPPLFLDLLIAWKKHGYLSRANRAFADYLLEKGSSAAL”, which “soluble on expression in E. coli” value is on record?
**A.** not soluble
